Tested on: MS2 coat protein
Experiment: apparent KD of MS2 coat protein; designed switch direction (-1 OFF switch, 1 ON switch): -1; higher = weaker reporter binding
Outline: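 Each step of the titration lasted 0.8–1.5 h at the lowest concentration and 10–20 min at the highest. The protein, SNAP-549-labelled MS2 coat protein, went from 0.7 or 1.5 nM doubling to 3 µM over RNA switches transcribed on Illumina chips by stalled E. coli RNA polymerase. Normalised cluster fluorescence was curve-fitted, and the per-design median over clusters is given as apparent KD.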

[1] = input ligand: microRNA oligo, concentration not stated
[2] = Eterna round: R95, input ligand: FMN 200 uM
[3] = Eterna round: R95, input ligand: microRNA oligo, concentration not stated
[4] = Eterna round: R95, input ligand: none

Sequence: AACUCACGUUCAGGAUAUCGCGUUCCAAAGACAUGAGAAGGGAACAUGAGGAUCACCCAUGUGCCCGGUCUCAGACCGGGCUUC [Cetein] (Eterna round: R96, puzzle: Exclusion NG 1)
- apparent KD of MS2 coat protein (input ligand: FMN 200 uM): 328 nM
- apparent KD of MS2 coat protein [1]: 76 nM
- apparent KD of MS2 coat protein (input ligand: none): 88.8 nM

Sequence: AACUCUGAGAAGGAUAUGGUACGGGAAAUGGUACCAGAAGGUUUCACAUGAGGAUCACCCAUGUCGAAUAGUGA [EX6 #68] (Eterna round: R97, puzzle: Exclusion 6)
- apparent KD of MS2 coat protein (input ligand: FMN 200 uM): 28.8 nM
- apparent KD of MS2 coat protein (input ligand: none): 27.4 nM

Sequence: AACUCUGAGAAGGAUAUUGUACGGGAAAUGGUACAAGAAGGUUUCACAUGAGGAUCACCCAUGUCGAAUAGUGA [EX6 #69] (Eterna round: R97, puzzle: Exclusion 6)
- apparent KD of MS2 coat protein (input ligand: FMN 200 uM): 34.7 nM
- apparent KD of MS2 coat protein (input ligand: none): 22.9 nM

Sequence: AAGAAACAUGAGGAUCACCCAUGUCAGGAUAUCCGAAAAGAAAAGAAAAGAAAAGAAAGGAGAAGGGACAAAAG [Default title] (puzzle: Exclusion 1)
- apparent KD of MS2 coat protein [2]: 40.7 nM
- apparent KD of MS2 coat protein [3]: 26.6 nM
- apparent KD of MS2 coat protein [4]: 76 nM

Sequence: AAGAAACAUGAGGAUCACCCAUGUCAGGAUAUCUCGAAAAGCAUAGAAAUAUGCGAAGAGAGAAGGGACAAGAA [ChP Ext 10-04-2015] (puzzle: Exclusion 1)
- apparent KD of MS2 coat protein [3]: 56.1 nM

Sequence: AAGAAACAUGAGGAUCACCCAUGUGAGGAUAUGACCAAGAAAAGAAAAGAAAGAAGAAUCAGAAGGCACAAAGG [salish99-ex1_r3_051] (puzzle: Exclusion 1)
- apparent KD of MS2 coat protein [2]: 47.7 nM
- apparent KD of MS2 coat protein [3]: 47.2 nM
- apparent KD of MS2 coat protein [4]: 70.2 nM

Sequence: AAGAAACAUGAGGAUCACCCAUGUGAGGAUAUGACGAAGAAAAGAAAAGAAAGAAGAAUCAGAAGGCACAAAGG [salish99-ex1_r3_052] (puzzle: Exclusion 1)
- apparent KD of MS2 coat protein [2]: 64.1 nM
- apparent KD of MS2 coat protein [3]: 40.8 nM
- apparent KD of MS2 coat protein [4]: 51.6 nM

Sequence: AAGAAACAUGAGGAUCACCCAUGUGAGGAUAUGACGAAGAAAAGAAAAGAAAGAAGAGUCAGAAGGCACAAAGG [salish99-ex1_r3_067] (puzzle: Exclusion 1)
- apparent KD of MS2 coat protein [2]: 132 nM
- apparent KD of MS2 coat protein [3]: 100 nM
- apparent KD of MS2 coat protein [4]: 109 nM

Sequence: AAGAAACAUGAGGAUCACCCAUGUGAGGAUAUGAUGAAGAAAAGAAAAGAAAGAAGACUCAGAAGGCACAAAGG [salish99-ex1_r3_070] (puzzle: Exclusion 1)
- apparent KD of MS2 coat protein [2]: 77.1 nM
- apparent KD of MS2 coat protein [3]: 45.3 nM
- apparent KD of MS2 coat protein [4]: 47.4 nM

Sequence: AAGAAACAUGAGGAUCACCCAUGUGAGGAUAUGAUUAAGAAAAGAAAAGAAAGAAGACUCAGAAGGCACAAAGG [salish99-ex1_r3_069] (puzzle: Exclusion 1)
- apparent KD of MS2 coat protein [2]: 55.5 nM
- apparent KD of MS2 coat protein [3]: 80.9 nM
- apparent KD of MS2 coat protein [4]: 45.5 nM

Sequence: AAGAAACAUGAGGAUCACCCAUGUGAGGAUAUGUAAAAUAAAAUAAAAGAAAUAAUAAACAGAAGGCACAAAGG [Mat - Mod of Hog D16] (puzzle: Exclusion 1)
- apparent KD of MS2 coat protein [2]: 47.2 nM
- apparent KD of MS2 coat protein [3]: 29.8 nM
- apparent KD of MS2 coat protein [4]: 41.8 nM

Sequence: AAGAAACGAGGAUAUACAGUUGAGUGAGAGAGGGAAGUGUGACAUGAGGAUCACCCAUGUAGAAGGCGUGAGAG [JR_Exclu2_Sub087] (puzzle: Exclusion 2)
- apparent KD of MS2 coat protein [2]: 49.1 nM
- apparent KD of MS2 coat protein [3]: 40.4 nM
- apparent KD of MS2 coat protein [4]: 76.8 nM

Sequence: AAGAAACGAGGAUAUACAGUUGAGUGAGAGAGGGAAGUGUUACAUGAGGAUCACCCAUGUAGAAGGCGUGAGAG [JR_Exclu2_Sub088] (puzzle: Exclusion 2)
- apparent KD of MS2 coat protein [2]: 32.9 nM
- apparent KD of MS2 coat protein [3]: 31.4 nM
- apparent KD of MS2 coat protein [4]: 33.6 nM

Sequence: AAGAAGAGGUGAGGAUAUCGAAGUACAGGCUGGGACUCGGACUACAUGAGGAUCACCCAUGUAUACGAGAAGGCACUUCGAUAA [Quusatrare] (Eterna round: R96, puzzle: Exclusion NG 2)
- apparent KD of MS2 coat protein (input ligand: FMN 200 uM): 12.6 nM
- apparent KD of MS2 coat protein [1]: 12 nM
- apparent KD of MS2 coat protein (input ligand: none): 14.7 nM

Sequence: AAGAAGCUAGGAUAUACAUGAGGAUCACCCAUGUCUCCAUGGUUGACGAGUUCCGCACGUAGAAGGAGCAAAAC [Aerdidima] (Eterna round: R97, puzzle: Exclusion 3)
- apparent KD of MS2 coat protein (input ligand: FMN 200 uM): 225 nM
- apparent KD of MS2 coat protein (input ligand: none): 56.7 nM

Sequence: AAGACCUUUGUCAGGAUAUCAAGGCAAUUCGCCGGUGAGAAGGGACAUGAGGAUCACCCAUGUAAAGAAAAGAA [Rausedlave] (puzzle: Brourd's mod of Exclusion 4)
- apparent KD of MS2 coat protein [2]: 69 nM
- apparent KD of MS2 coat protein [3]: 20.1 nM
- apparent KD of MS2 coat protein [4]: 19.7 nM

Sequence: AAGAGAGCAGGAUAUCGGUUUUGCGACAUGAGGAUCACCCAUGUGAGCCGAGUCCAACGCCGAGAAGGGCUAAAAU [Onesis] (puzzle: Exclusion 5)
- apparent KD of MS2 coat protein [3]: 53.3 nM

Sequence: AAGAGGAUUACAGGAUAUGAAGCUAAAACGGCGUUAGAAGGGUAUACAGAGUUACAUGAGGAUCACCCAUGUUGUGAUUUCUAA [AK ExNG1-V2-4.2] (Eterna round: R96, puzzle: Exclusion NG 1)
- apparent KD of MS2 coat protein (input ligand: FMN 200 uM): 48.4 nM
- apparent KD of MS2 coat protein [1]: 38.4 nM
- apparent KD of MS2 coat protein (input ligand: none): 49.2 nM

Sequence: AAGAGGUCAGGAUAUACGGGAAGAGGGAGAAGUAGAGGGUAACAUGAGGAUCACCCAUGUAGAAGGGACUAAGA [JR_Exclu2_Sub073] (puzzle: Exclusion 2)
- apparent KD of MS2 coat protein [2]: 26.7 nM
- apparent KD of MS2 coat protein [3]: 26.4 nM
- apparent KD of MS2 coat protein [4]: 28.1 nM

Sequence: AAGAGUAGAGGAUAUUGUUUAUGGCACAUGAGGAUCACCCAUGUAGCGAGAGUGGUGCCACAAGAAGGUUGCAUGA [Eternabot (L2) Solution 71] (Eterna round: R97, puzzle: Exclusion 5)
- apparent KD of MS2 coat protein (input ligand: FMN 200 uM): 42.3 nM
- apparent KD of MS2 coat protein (input ligand: none): 52.5 nM

Sequence: AAGAGUGCAGGAUAUACGUGAUGGAGUAGGAUGAGAGAAGGACAUGAGGAUCACCCAUGUAGAAGGGCAGAGAG [JR_Exclu2_Sub059] (puzzle: Exclusion 2)
- apparent KD of MS2 coat protein [2]: 28.7 nM
- apparent KD of MS2 coat protein [3]: 43.4 nM
- apparent KD of MS2 coat protein [4]: 31 nM

Sequence: AAGCAGCGAGGAUAUGCUUGAGCGUGUCCUAGUUGAAAUAAACUUGAGGAUCACCCAAGUAGAAGGCGCAGCCC [Rivezaed] (Eterna round: R97, puzzle: Exclusion 2)
- apparent KD of MS2 coat protein (input ligand: FMN 200 uM): 135 nM
- apparent KD of MS2 coat protein (input ligand: none): 49.1 nM

Sequence: AAGCAGGUGUAGGCCGUCUACAUGAGGAUCACCCAUGUGCCUCAUCCACCCGGCACCCAAUAAAGCGGGCGCCGGGC [Teququ] (Eterna round: R96, puzzle: Sensor v2, turn-off variant)
- apparent KD of MS2 coat protein (input ligand: FMN 200 uM): 113 nM
- apparent KD of MS2 coat protein [1]: 65.3 nM
- apparent KD of MS2 coat protein (input ligand: none): 103 nM

Sequence: AAGCCACAUGAGGAUCACCCAUGUUAGGAUAUACGCAUGCAGACACGCACGGAUGCAAGUAGAAGGAACCAUGC [Design #5] (Eterna round: R97, puzzle: Exclusion 1)
- apparent KD of MS2 coat protein (input ligand: FMN 200 uM): 16.8 nM
- apparent KD of MS2 coat protein (input ligand: none): 15.9 nM

Sequence: AAGCUAUCUGUAGGAUAUACAACUGAUCUCGAGGUAGAAGGACAUCCAGUUACGCCAACAUGAGGAUCACCCAUGUGGAUCUUG [Eternabot solution 39] (Eterna round: R96, puzzle: Exclusion NG 1)
- apparent KD of MS2 coat protein (input ligand: FMN 200 uM): 15.2 nM
- apparent KD of MS2 coat protein [1]: 12.9 nM
- apparent KD of MS2 coat protein (input ligand: none): 18.4 nM

Sequence: AAGGCCUGAGGAUAUCAGAGUCUAAACAUGAGGAUCACCCAUGUGAACCUGGUCAGUCUGUGAGAAGGUAGUGCUC [Tequat] (puzzle: Exclusion 5)
- apparent KD of MS2 coat protein [2]: 39.5 nM
- apparent KD of MS2 coat protein [3]: 39.8 nM
- apparent KD of MS2 coat protein [4]: 57.3 nM

Sequence: AAGUACCGUCACGAUAGUGAUGGUACAACAAGCAAGUGAACAUGAGGAUCACCCAUGUCCUCAAUUGCUCGUCUUAU [Sensor 3 - 71] (puzzle: Sensor v3, turn-off variant 2)
- apparent KD of MS2 coat protein [2]: 28.1 nM
- apparent KD of MS2 coat protein [3]: 62.1 nM
- apparent KD of MS2 coat protein [4]: 28.5 nM

Sequence: AAGUACCGUCACGAUAGUGAUGGUACAACAAGCAGUGAUACAUGAGGAUCACCCAUGUCCUCAAUUGCUCGUCUUAU [Sensor 3 - 75] (puzzle: Sensor v3, turn-off variant 2)
- apparent KD of MS2 coat protein [2]: 133 nM
- apparent KD of MS2 coat protein [3]: 307 nM
- apparent KD of MS2 coat protein [4]: 157 nM

Sequence: AAGUACCGUCACGAUAGUGAUGGUACAACAAGUAGUGAAACAUGAGGAUCACCCAUGUCCUCUUUUGCUCGUCUUAU [Sensor 3 - 88] (puzzle: Sensor v3, turn-off variant 2)
- apparent KD of MS2 coat protein [2]: 931 nM
- apparent KD of MS2 coat protein [3]: 54 nM
- apparent KD of MS2 coat protein [4]: 969 nM

Sequence: AAGUACCGUCACGAUAGUGAUGGUACAACAAGUGAAUGUACAUGAGGAUCACCCAUGUCCUCUUUUGCUCGUCUUAU [Sensor 3 - 92] (puzzle: Sensor v3, turn-off variant 2)
- apparent KD of MS2 coat protein [2]: 151 nM
- apparent KD of MS2 coat protein [3]: 30.9 nM
- apparent KD of MS2 coat protein [4]: 184 nM

Sequence: AAGUACUACAAGCUUAGGGACAUGAGGAUCACCCAUGUUCGUCUUAUUGAUCUAGGUACGCUGACGUACCUAGAUCU [Mat - Sensor v3 - turn-off var 1 - JL Mod - D9] (puzzle: Sensor v3, turn-off variant 1)
- apparent KD of MS2 coat protein [2]: 15.2 nM
- apparent KD of MS2 coat protein [3]: 58.6 nM
- apparent KD of MS2 coat protein [4]: 13.2 nM

Sequence: AAGUAGAGCUAAGGAUAUAUAGAGUAGUAGAAGAUAGAAGGUAGAAGUAGAAGAUGAUGAUGAAGAUGAAGUAGAUGAAGUAGA [TEST1] (Eterna round: R96, puzzle: Exclusion NG 1)
- apparent KD of MS2 coat protein (input ligand: FMN 200 uM): 24.7 nM
- apparent KD of MS2 coat protein [1]: 209 nM
- apparent KD of MS2 coat protein (input ligand: none): 19.9 nM

Sequence: AAGUAGCAUGCAGGAUAUGGUAAUCGAACGUUACCAGAAGGGCAUGAGGAUCACCCAUGUUCUCAUUUGUAAGAACAGAUGUCU [Ex NG1 #7] (Eterna round: R96, puzzle: Exclusion NG 1)
- apparent KD of MS2 coat protein (input ligand: FMN 200 uM): 251 nM
- apparent KD of MS2 coat protein [1]: 110 nM
- apparent KD of MS2 coat protein (input ligand: none): 94.4 nM

Sequence: AAGUAUAGAGGAUAUAGUAGGUACAACAUGAGGAUCACCCAUGUUCUUCAUAACGUAUUUCUAGAAGGCUGAUAAA [EX-5 Malc#27] (Eterna round: R96, puzzle: Exclusion 5)
- apparent KD of MS2 coat protein (input ligand: FMN 200 uM): 356 nM
- apparent KD of MS2 coat protein [1]: 135 nM
- apparent KD of MS2 coat protein (input ligand: none): 126 nM

— the supplement of paper PMC9170038
